Data from the Human Domainome abundance scans (Beltran et al. 2025).

B1: SAM and SH3 domain-containing protein 1, residues 630 to 700; numbered along this chain, O94885 (parent)
chain: GRPPQPKSVEDLLDRINLKEHMPTFLFNGYEDLDTFKLLEEEDLDELNIRDPEHRAVLLTAVELLQEYDSN

Variants of: B1
Assay: abundance fitness (aPCA) (normalised: wild type 0, dead -1); higher = more abundant; growth selection in yeast, the domain comes from the species named
Conditions: Homo sapiens

Abundance fitness: each site, then its substitutions
L64: N 0.295, M 0.193, R 0.199, K 0.264, D 0.33, S 0.31, I -0.393, T 0.166, C 0.019, A 0.343, H 0.222, P -0.595, E 0.483, F -0.117
E63: T -0.226, M -0.492, Q -0.018, G -0.15, I -0.898, A 0.034, S 0.004, R 0.133, D -0.058, K 0.244, F -0.866, L -0.587, Y -0.687, H -0.075, N -0.066, V -0.831, W -0.751
R55: C -0.888, S -0.731, T -0.89, D -0.77, N -0.891, P -0.895, M -0.896, Y -0.935, G -1.02, L -1.01, Q -0.5, E -0.522, V -0.591, I -0.696, A -0.9, W -1.14, F -0.864
A61: H -0.497, T -0.479, C -0.483, I -0.983, E 0.074, M -0.324, P -0.731, S -0.225, L -0.997, Q -0.036, V -0.644, R -0.904, W -0.287, N -0.479, Y -0.609, D -0.787, F -0.759
L59: H -0.564, C -0.678, S -0.514, D -0.577, F -0.792, I -0.525, T -0.562, M 0.001, G -0.511, Y -0.823, W -0.822, V -0.735, Q -0.478, A -0.569, N -0.491, P -0.445, K -0.206
V62: D -0.607, M -0.648, W -0.8, Y -0.82, G -0.524, K 0.005, L -0.647, I -0.14, E -0.489, F -0.916, C -0.241, N -0.578, P -0.517, A -0.091, H -0.596, Q -0.769, T -0.476
L47: Y -0.783, V -0.781, P -0.799, Q -0.805, F -0.828, H -0.788, E -0.765, K -0.781, D -0.828, C -0.577, M 0.017, R -0.922, W -0.959, A -0.698, I -0.671
V57: A 0.394, P -0.484, R 0.418, L 0.199, H -0.166, C 0.107, W -0.397, D 0.089, T 0.232, Q 0.251, F -0.747, G -0.195, E 0.196, S 0.243, N 0.15, I -0.059, M 0.067
D43: W -0.928, V -0.456, Y -0.953
E53: P -0.924, S -0.126, R -0.266, N -0.146, Q -0.051, H -0.09, L -0.486, F -0.673, I -0.542, C -0.23, A -0.089, Y -0.557, V -0.283, K -0.131, T -0.207, W -0.575
D51: V -0.553, R -0.611, G -0.75, T -0.505, L -0.632, E -0.369, N -0.159, C -0.396, S -0.49, Y -0.774, A -0.659, H -0.447, M -0.845, W -0.862, Q -0.307
L44: M -0.702, D -0.819, K -0.746, V -0.791, E -0.757, S -0.875, H -0.941, R -0.904, C -0.598, P -0.764, N -0.822, Q -0.873, F -0.38, W -0.773, G -0.819, A -0.779, Y -0.755
A56: Y -0.605, N -0.108, T -0.114, H -0.057, S 0.011, L -0.334, W -0.816, R 0.191, V -0.493, P -0.772, C -0.272, D -0.096, M -0.213, E 0.085, K 0.265, G -0.337
N48: I -0.985, D 0.024, T -0.916, Q -0.393, F -0.983, A -0.343, S -0.388, W -0.775, P -0.837, E 0.084, V -1.21, M -0.516, C -0.273, L -0.741, R -0.319, G 0.197, H -0.056
H54: E 0.13, M -0.501, F -1.03, N -0.635, G -0.832, I -0.458, S -0.408, Y -0.857, K -0.496, D -0.02, V -0.189, T -0.093, R -0.823, P -0.733, Q 0.059, W -0.96, C -0.678, L -0.849, A -0.169
L58: D -0.347, I 0.167, R -0.651, M -0.717, S -0.516, G -0.667, P -0.501, C -0.82, Q -0.468, Y -0.905, H -0.53, N -0.51, V -0.53, A -0.531, W -0.819, T -0.72, K -0.588, F -0.596
I49: N -0.926, V -0.398, H -0.784, F -0.851, Y -0.869, G -0.785, K -0.863, T -0.863, L -0.868, Q -0.92, W -0.823, S -0.876, E -0.79, C -0.728, P -1, A -0.98, R -0.831
P52: N -0.569, Y -1.02, G -0.71, S -0.354, F -1.04, W -0.782, C -0.565, R -0.499, T -0.437, E -0.317, L -0.61, Q -0.424, V -0.5
R50: G -0.371, F -0.071, D -0.057, L 0.091, H 0.072, T 0.183, Y -0.012, A -0.301, E -0.146, Q 0.039, I -0.11, N -0.027, S -0.06, K 0.032, W 0.003
D45: L -0.113, H -0.538, G -0.812, W -0.499, R -0.415, F -0.48, E -0.276, Q -0.557, A -0.622, T -0.38, V -0.151, C -0.416, P -0.833, Y -0.496, M -0.247, I 0.037, S -0.544, K -0.135, N -0.272
T60: H 0.302, R 0.237, A 0.242, F -0.613, Y -0.449, E 0.398, I -0.927, Q 0.266, N 0.348, M -0.385, L -0.579, C -0.293, D 0.245, G 0.071, W -0.378, S 0.227, V -0.735, P -0.63
